In assay [1] the test system is inner membrane of E. coli. Format: cell-based, E. coli BL21(DE3).
Assay [2] relates to inner membrane of E. coli. Description: G-GECO1 fluorescence screening of the 3xNNK S2168 pinholin library in microtiter plates (Example 12). The note with it: for Comment: effect on pore formation: measured at the half-maximum time c, N-terminal variants of S21-71; for Slope [d]: sigmoid fit with equation 1 (high d = low slope), G-GECO1; for Slope [d] / Half-maximum time [c]: pCTRL2.T7.100.sRBS library; for Half-maximum time [c]: sigmoid fit with equation 1, G-GECO1, 0.5 mM IPTG.
Procedure: Colonies of BL21(DE3) on LB agar from 3. were picked and cultivated in deep well plates with 300 μl of LB medium with the necessary antibiotics overnight for about 16 h at 37° C. and 1300 rpm.
After cultivating individual clones from 4. overnight, the OD600 of the precultures in microtiter plates was adjusted to 0.1, and the samples, 200 μL each, were shaken at 37° C. and 180 rpm for 30 min. Within the framework of the pCTRL2-^3×NNKS^2168 library, 271 clones were thus picked. Within the framework of the pCTRL2.T7.100.sRBS-^3×NNKS^2168 library, 576 clones were picked.
Subsequently, all nanopore variants were then induced with 0.5 mM IPTG, and the fluorescence was measured over another 190 min.
General information: The measurement in the reader is carried out at 30° C. every 3 min. The plate is shaken at 180 rpm between the measurements. The OD600 and the fluorescence (Ex: 485 nm; Em: 525 nm) are measured. The volume in the cavities is 200 μl after addition of all inductors.
For the analysis, the curves were fitted empirically with equation 1 in order to quantitatively determine the half-maximum time c or the slope d, for example.

Assay [3] has as its system E. coli. Description: G-GECO1 single-cell fluorescence microscopy in a microfluidic cultivation chamber (Example 11). The note with it: for G-GECO1 fluorescent signal after expression: pCTRL2.T7.100 constructs, 0.5 mM IPTG.
Procedure: Colonies of BL21(DE3) on LB agar plates from 1. were picked and cultivated in culture tubes with 2 ml of LB medium and the necessary antibiotics overnight for about 16 h at 37° C. and 180 rpm.
After the cultivation of individual clones from 2. overnight, the cells were transferred to fresh sterile-filtered LB medium, the OD600 of the precultures was 20 adjusted to 0.1, and subsequently grown at 37° C. for a period of 3 h up to an OD600 of 2.
For the cultivation and functional fluorescence-microscopic examination of the cells in a microfluidic cultivation chamber, it was possible to use a previously published microfluidic chip design (see Supplementary FIG. 5 in Nature Communications, 2020, 11, 2746).
After the microfluidic chip was flooded with LB medium, the cells were added and the flow rate through the microfluidic chip was adjusted to 1 μl/min. The cells were left in the microfluidic chip at 37° C. for 3 h, so that they were able to collect and grow accordingly in the cultivation chambers.
Thereafter, the expression of G-GECO1 was induced by a change to LB medium with 25 mM sodium propionate, pH 8.0, at 30° C. for 2 h.
Subsequently, the nanopores were then induced by a change to LB medium with 0.5 mM IPTG, and the development of the fluorescent signal was measured over 16 h.
The fluorescent signal was measured by means of a fluorescence microscope at 30° C. in intervals of 3 minutes. A transmitted-light image and then a fluorescence image (Ex: 488 nm; Em: 504-539 nm) in the form of a Z-stack were taken each time. From the induction of G-GECO1, a flow rate of 4 μl/min was used.
For the analysis, the entire cells from a single cultivation chamber (shown by way of example in FIG. 23) were analyzed with the aid of image analysis software (Fiji ImageJ 1.51; Nature Methods, 2012, 9, 676-82) and the fluorescence in relative fluorescence units (RFU) was plotted against the time (FIG. 24). Based on the curve of the fluorescent signal, detailed statements about the cell integrity or the outflow and the bleaching behavior of the sensor can then be made.

Results on eleven molecules are retold here after patent US20230050056A1, “METHOD FOR SCREENING PORE-FORMING MEMBRANE PROTEINS, MEMBRANE TR[…] MOLECULAR SWITCHES” (TECHNISCHE UNIVERSITÄT DARMSTADT, priority 2019, published 2023).

For the molecule “HokB: Pore-forming membrane peptide; forms part of a bacterial efflux or toxin/antitoxin system (MKHNPLVVCLLIICITILTFTLLTRQTLYELRFRDGDKEVAALMACTSR; listed as Escherichia coli)”, the “iGluSNFr fluorescent signal after co-expression (L-Glu outflow)” value (shortened to “iGluSNFr fluorescent signal”) in assay [1] was “reduction in the fluorescence”.

B1: S^21-71 M4A (protein)
chain: MKSADKISTGIAYGTSAGSAGYWFLQWLDQVSPSQWAAIGVLGSLVLGFLTYLTNLYFKIREDRRKAARGE
modifications: Mutant of S21-71 anti-pinholin of bacteriophage P21
Consider B1, for which, in assay [1], the “iGluSNFr fluorescent signal” value was “reduction in the fluorescence”.

B2: Clone P3G3 (protein)
chain: MWRGDKISTGIAYGTSAGSAGYWFLQWLDQVSPSQWAAIGVLGSLVLGFLTYLTNLYFKIREDRRKAARGE
modifications: Mutant of S21-71 anti-pinholin of bacteriophage P21
With B2, in assay [2], the “Comment: effect on pore formation” value was “Inhibitory”, the “Slope [d]” value came to 47.62 and the “Half-maximum time [c]” value worked out at 358.7.

B3: Clone P7D10 (protein)
chain: MAGWDKISTGIAYGTSAGSAGYWFLQWLDQVSPSQWAAIGVLGSLVLGFLTYLTNLYFKIREDRRKAARGE
modifications: Mutant of S21-71 anti-pinholin of bacteriophage P21
As for B3, in assay [2], the “Comment: effect on pore formation” value is given as “Inhibitory”, the “Slope [d]” value came out at 22.49 and the “Half-maximum time [c]” value came out at 304.1.

B4: Clone P14E5 (protein)
chain: MYLEDKISTGIAYGTSAGSAGYWFLQWLDQVSPSQWAAIGVLGSLVLGFLTYLTNLYFKIREDRRKAARGE
modifications: Mutant of S21-71 anti-pinholin of bacteriophage P21
With B4, in assay [2], the “Comment: effect on pore formation” value is listed as “Accelerating”, the “Slope [d]” value is reported as 4.908 and the “Half-maximum time [c]” value is 166.1.

B5: Clone P15D3 (protein)
chain: MDWDDKISTGIAYGTSAGSAGYWFLQWLDQVSPSQWAAIGVLGSLVLGFLTYLTNLYFKIREDRRKAARGE
modifications: Mutant of S21-71 anti-pinholin of bacteriophage P21
In the case of B5, in assay [2], the “Comment: effect on pore formation” value is listed as “Accelerating”, the “Slope [d]” value came to 6.727 and the “Half-maximum time [c]” value is 187.4.

B6: Clone P3E5 (protein)
chain: MFQWDKISTGIAYGTSAGSAGYWFLQWLDQVSPSQWAAIGVLGSLVLGFLTYLTNLYFKIREDRRKAARGE
modifications: Mutant of S21-71 anti-pinholin of bacteriophage P21
Turning to B6, in assay [2], the “Comment: effect on pore formation” value is given as “Inhibitory”, the “Slope [d]” value was found to be 28.25 and the “Half-maximum time [c]” value was determined as 483.1.

B7: Clone P14C11 (protein)
chain: MNFEDKISTGIAYGTSAGSAGYWFLQWLDQVSPSQWAAIGVLGSLVLGFLTYLTNLYFKIREDRRKAARGE
modifications: Mutant of S21-71 anti-pinholin of bacteriophage P21
For B7, in assay [2], the “Comment: effect on pore formation” value is given as “Accelerating”, the “Slope [d]” value was 6.835 and the “Half-maximum time [c]” value amounted to 172.3.

B8: T4 holin Wild-type: Wild-type of the T4 pinholin of bacteriophage T4 with highly pronounced pore-forming properties (protein)
chain: MAAPRISFSPSDILFGVLDRLFKDNATGKVLASRVAVVILLFIMAIVWYRGDSFFEYYKQSKYETYSEIIEKERTARFESVALEQLQIVHISSEADFSAVYSFRPKNLNYFVDIIAYEGKLPSTISEKSLGGYPVDKTMDEYTVHLNGRHYYSNLKFAFLPTKKPTPEINYMYSCPYFNLDNIYAGTITMYWYRNDHISNDRLESICAQAARILGRAK
modifications: Bacteriophage T4
B8: in assay [3], the “cell division after expression” value was “stop quickly”, the “time window before loss of cellular integrity or outflow of the sensor” value was determined as 30 min, the “time within which the fluorescent signal decreases again” value is reported as not above 30 min and the “G-GECO1 fluorescent signal after expression” value is “increase quickly”.

B9: S^21-68: Wild-type of the S^21-68 pinholin of bacteriophage P21 with pronounced and defined pore-forming properties (protein)
chain: MDKISTGIAYGTSAGSAGYWFLQWLDQVSPSQWAAIGVLGSLVLGFLTYLTNLYFKIREDRRKAARGE
modifications: Bacteriophage P21
For B9, in assay [3], the “cell division after expression” value is given as “stop quickly”, the “cellular integrity measured at the form of the cells” value is “remains intact over a comparatively long period of time” and the “G-GECO1 fluorescent signal after expression” value was “increase quickly”.

B10: S^107-M3A (protein)
chain: MKAPEKHDLLAAILAAKEQGIGAILAFAMAYLRGRYNGGAFTKTVIDATMCAIIAWFIRDLLDFAGLSSNLAYITSVFIGYIGTDSIGSLIKRFAAKKAGVEDGRNQ
modifications: Mutant of S107 anti-pinholin of bacteriophage lambda
As for B10, the “iGluSNFr fluorescent signal” value in assay [1] is reported as “reduction in the fluorescence”.
